Experimental data taken from patent US20250282868A1 (ITEOS BELGIUM, published 2025).
Changes are numbered by the printed parent chain.

T1: human TREM2 (human, UniProt Q9NZC2 19-230)
T1 construct: on THP-1 WT cells and M2a-like macrophages (endogenous) and on CHO or HEK293T cells overexpressing human TREM2 with DAP12; also called hTREM2
T1 sequence: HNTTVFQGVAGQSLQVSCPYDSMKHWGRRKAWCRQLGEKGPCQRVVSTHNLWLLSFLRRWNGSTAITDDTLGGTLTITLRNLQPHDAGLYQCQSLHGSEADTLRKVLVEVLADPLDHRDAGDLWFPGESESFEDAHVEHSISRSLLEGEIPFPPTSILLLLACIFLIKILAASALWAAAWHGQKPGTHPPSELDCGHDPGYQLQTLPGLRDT

T2: mouse TREM2 (mouse, UniProt Q99NH8 19-227)
T2 construct: whole, on cells
T2 sequence (looked up): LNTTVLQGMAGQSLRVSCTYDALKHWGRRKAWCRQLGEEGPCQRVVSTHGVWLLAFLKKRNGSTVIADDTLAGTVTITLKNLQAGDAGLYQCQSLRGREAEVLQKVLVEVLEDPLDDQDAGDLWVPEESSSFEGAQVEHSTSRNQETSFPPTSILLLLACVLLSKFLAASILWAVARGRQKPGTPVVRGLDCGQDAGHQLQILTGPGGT

T3: cynomolgus TREM2 (cynomolgus, UniProt A0A2K5UY34 49-260)
T3 construct: also called cynoTREM2; cTREM2
T3 sequence: T1 sequence with A10E, W60R, L89F, F125V, I157V, L193P, Y201H

B1: EOS006166 (antibody, V domains shown)
VH: EVQLVESGGGLVQPGRSLRLSCTASGFTFGDYAMSWFRQAPGKGLEWVGFIGSKAYGGTTEYTASVKGRFTISRDGSKSIAYLQMNSLKTEDTAVYYCARGKRYSYGYWHPAFDVWGQGTMVTVSS
VL: DIQMTQSPSSLSASVGDRVTITCQASQDITNYLNWYQQKPGKAPKLLIYDASNLETGVPSRFSGSGSGTDFTFTISSLQPEDIATYYCQQYDSYLTFGGGTKVEIK
B2: EOS006173 (antibody, V domains shown)
VH: B1 VH with Y104R, S105D
VL: B1 VL with Q90E, S93Q
notes: also called EOS061730
B3: EOS006177 (antibody, V domains shown)
VH: QVQLQESGPGLVKPSGTLSLTCAVSGGSISDSAWWSWVRQPPGKGLEWIGEIYHDADTNYNPSLKSRVTISVDKSKNQFSLKLSSVTAADTAVYYCARDTKYWGGMDVWGQGTTVTVSS
VL: B1 VL with T30S, E55A, D92V, S93E, Y94A, L95P
B4: EOS006164 (antibody, V domains shown)
VH: B1 VH with G30D, A33T, G57S, G58A, G107T, H110T
VL: B1 VL with Q90E, L95I
B5: EOS006174 (antibody, V domains shown)
VH: B1 VH with D31E, A33T, G57A, Y108G, H110V
VL: B1 VL with Q90E, T96A
B6: EOS006167 (antibody, V domains shown)
VH: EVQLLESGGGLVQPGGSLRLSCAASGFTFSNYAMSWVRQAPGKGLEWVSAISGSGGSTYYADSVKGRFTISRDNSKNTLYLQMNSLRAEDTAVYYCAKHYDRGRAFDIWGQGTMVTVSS
VL: EIVLTQSPGTLSLSPGERATLSCRASQSVSSSYLAWYQQKPGQAPRLLIYGASSRATGIPDRFSGSGSGTDFTLTISRLEPEDFAVYYCQQYDDVPYTFGGGTKVEIK
B7: EOS006168 (antibody, V domains shown)
VH: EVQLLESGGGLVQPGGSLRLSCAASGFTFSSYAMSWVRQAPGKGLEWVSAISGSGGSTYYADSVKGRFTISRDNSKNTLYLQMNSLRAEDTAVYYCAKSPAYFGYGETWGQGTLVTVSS
VL: B6 VL with Y33F, D93Y, D94S, V95P, Y97I
B8: EOS006170 (antibody, V domains shown)
VH: B3 VH with D31S, A33N, D55S, A56G, D57S, W103Q, G104A
VL: B1 VL with T30S, E55A, D92V, S93V, Y94F, L95P
B9: EOS006180 (antibody, V domains shown)
VH: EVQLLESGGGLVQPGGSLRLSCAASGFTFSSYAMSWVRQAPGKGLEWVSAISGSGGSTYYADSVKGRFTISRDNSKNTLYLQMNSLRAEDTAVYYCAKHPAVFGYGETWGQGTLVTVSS
VL: B6 VL with Y33F, D93Y, D94G, V95L, Y97I

target: T1, human TREM2; assay: flow cytometry, competition with LDL-Alexafluor-488 on CHO cells overexpressing human TREM2/DAP12
Method: Exemplary anti-TREM2 antibodies were tested in order to characterize their ability to enter in competition with TREM2 ligand, LDL, on CHO overexpressing human TREM2/DAP12. Antibodies (dose response curves from 66.65 nM to 0.07 nM) were incubated for 30 min with cells in a soluble fashion, followed by an incubation with LDL coupled with Alexafluor-488 (at 1 μg/mL final) for 30 min. Finally, after 2 washes, cells were acquired on flow cytometer. The median MFI of Alexafluor-488 was used to plot the graphs. Benchmark antibody MOR044746 was used as positive control.

Binder | IC50 [nM]
B1 | 0.865
B2 | 0.145
B3 | 0.195
B4 | 0.265
B5 | 0.3

target: T1, human TREM2; assay: flow cytometry, M2a-like macrophages
Method: (§1) M2a-like macrophages were produced in vitro from monocytes of healthy donors. Briefly, after PBMCs isolation from peripheral blood using Lymphoprep™ gradient, CD14+ cells were purified and seeded in presence of MCSF 50 ng/ml for 6 days. Macrophages were then cultured with IL-13 and IL-4 at a concentration of 20 ng/ml for two additional days and then used for a cell-based binding assay.
(§2) M2a-like macrophages were incubated with anti-TREM2 antibodies (dose-response curve with 11 concentrations from 10 μg/ml to 0.0001 μg/ml) for 30 min at 4° C. After washing, bound antibodies were detected with a secondary anti-human IgG Fc PE-labelled for 30 min at 4° C. Fluorescence intensity was measured by flow cytometry. Equilibrium dissociation constant (kD) was then calculated for each antibody using median MFI normalized over isotype control.

Binder | Fold over isotype [fold]
B6 | 1.6
B7 | 1.9
B1 | 5.9
B2 | 8.2
B3 | 17.3
B4 | 12.9
B8 | 1.1
B5 | 14.9

target: T1, human TREM2; assay: flow cytometry, THP-1 WT cells, 10 ug/ml
Method: (§3) In order to test specificity of selected antibodies to TREM2, binding was tested by flow cytometry on THP-1 TREM2 KO (clone, produced using CRISPR technology in house) and on THP-1 WT. Cells were incubated with selected anti-TREM2 antibodies (final concentration of 10 μg/ml) for 30 min at 4° C. After washing, bound antibodies were detected with a secondary anti-human IgG Fc PE-labelled for 30 min at 4° C. Fluorescence intensity was measured by flow cytometry.

Binder | Fold over isotype control THP1 WT [fold]
B6 | 2.1
B7 | 3
B1 | 7.3
B2 | 3.3
B3 | 3.3
B4 | 3.7
B8 | 2.3
B5 | 4

target: T2, mouse TREM2; assay: MFI on CT26 cells over-expressing mouse TREM2 and DAP12 vs CT26 empty vector
Method: (§4) Cross-reactivity to mouse TREM2 was assessed using CT26 cells over-expressing mouse TREM2 and DAP12 (Table 23). Eight anti-TREM2 antibodies and both benchmark antibodies were considered cross-reactive to mouse TREM2 (MFI higher than isotype control and fold change of CT26-TREM2 over the CT26 Empty Vector higher than 5). The remaining anti-TREM2 antibodies were considered as being low to not cross-reactive (fold change less than 5). EOS006171 was not tested due to clear non-cross-reactivity preliminary data by octet (data not shown).

Binder | MFI Fold change (CT26-TREM2 over CT26-EV) [fold]
B6 | 4.7
B7 | 1.6
B9 | 1.8
B2 | 11
B3 | 21.4
B4 | 21.4
B8 | 1
B5 | 34.3

target: T1, human TREM2; assay: cell-based or functional assay

Binder | Fold over isotype control at 66 nM [fold] | pSYK/TotSYK EC50 (nM)
B6 | 1.57 | 49.9
B7 | 1.99 | 96
B1 | 1.75 | –
B2 | 1.34 | 1.08
B3 | 0.95 | –
B4 | 1.16 | –
B8 | 1.31 | –
B5 | 0.897 | –

target: T1, human TREM2; assay: flow cytometry, THP-1 WT vs THP-1 TREM2 KO cells, 10 ug/ml
Method: as §3

Binder | MFI Fold change (THP-1 WT over THP-1 TREM2 KO) [fold]
B6 | 2.2
B7 | 2.3
B1 | 1.8
B2 | 3.3
B3 | 6.8
B4 | 4.3
B8 | 3.2
B5 | 5.1

target: T3, cynomolgus TREM2; assay: MFI on CHO cells over-expressing cynoTREM2-DAP12
Method: (§5) Cross-reactivity of anti-TREM2 antibodies to cynomolgus TREM2 (cynoTREM2) was assessed using CHO over-expressing cynoTREM2-DAP12 (Table 22). Benchmark antibodies, AB52 and PN-37012, were examined for comparison.

Binder | Binding to CHO-cTREM2 MFI [MFI]
B6 | 7220
B7 | 194
B1 | 25500
B2 | 14000
B3 | 19600
B4 | 14200
B8 | 1650
B5 | 15700

target: T2, mouse TREM2; assay: MFI on CT26 cells over-expressing mouse TREM2 and DAP12; column 'Considered cross-reactive'
Method: as §4

Binder | binding result
B6 | no binding (tested: fold change less than 5)
B7 | no binding (tested: fold change less than 5)
B9 | no binding (tested: fold change less than 5)
B8 | no binding (tested: fold change less than 5)

target: T1, human TREM2; assay: cell-based or functional assay; remark: another data set of the same source

Binder | Stabilization ratio (Mean of 2 replicates) [ratio]
B6 | 0.82
B7 | 0.8
B1 | 0.49
B2 | 0.41
B3 | 0.44
B4 | 0.55
B8 | 0.57
B5 | 0.46

target: T2, mouse TREM2; assay: MFI on CT26 cells over-expressing mouse TREM2 and DAP12
Method: as §4

Binder | Binding to CT26-TREM2 MFI [MFI]
B6 | 2060
B7 | 655
B9 | 1890
B2 | 3940
B3 | 8680
B4 | 6540
B8 | 322
B5 | 10100

target: T1, human TREM2; assay: flow cytometry, M2a-like macrophages, dose-response
Method: as §1, §2

Binder | Kd [nM]
B6 | 10.2
B7 | 2.99
B1 | 1.21
B2 | 0.3
B3 | 0.19
B4 | 0.32
B8 | 8.2
B5 | 0.09

target: T3, cynomolgus TREM2; assay: MFI on CHO cells over-expressing cynoTREM2-DAP12 vs CHO empty vector
Method: as §5

Binder | MFI Fold change (CHO-cTREM2 over CHO-EV) [fold]
B6 | 128
B7 | 3.3
B1 | 602
B2 | 329
B3 | 355
B4 | 277
B8 | 42.8
B5 | 323
